In article PMC5389614:
Like-named read-outs stand apart in the source and are kept apart here.

T1: AgeI D223A (UniProt Q9KHV6 1-278, D223A)
T1 sequence: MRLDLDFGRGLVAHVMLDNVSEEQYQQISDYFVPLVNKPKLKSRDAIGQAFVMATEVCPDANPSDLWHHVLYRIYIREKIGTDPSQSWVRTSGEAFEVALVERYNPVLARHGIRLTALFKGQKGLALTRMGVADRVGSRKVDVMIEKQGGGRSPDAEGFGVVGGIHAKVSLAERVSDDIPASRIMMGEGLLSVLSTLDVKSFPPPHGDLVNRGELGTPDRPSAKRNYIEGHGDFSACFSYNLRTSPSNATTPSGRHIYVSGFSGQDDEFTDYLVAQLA

T2: AgeI D178A (UniProt Q9KHV6 1-278, D178A)
T2 sequence: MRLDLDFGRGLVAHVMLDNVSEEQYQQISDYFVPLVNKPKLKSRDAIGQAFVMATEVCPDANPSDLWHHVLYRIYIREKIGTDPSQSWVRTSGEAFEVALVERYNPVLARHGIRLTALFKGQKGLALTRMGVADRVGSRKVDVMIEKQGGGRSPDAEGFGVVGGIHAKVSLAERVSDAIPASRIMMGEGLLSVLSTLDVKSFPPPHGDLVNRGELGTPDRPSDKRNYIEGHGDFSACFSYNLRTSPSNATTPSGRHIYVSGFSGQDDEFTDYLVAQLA

T3: AgeI Q86A (UniProt Q9KHV6 1-278, Q86A)
T3 sequence: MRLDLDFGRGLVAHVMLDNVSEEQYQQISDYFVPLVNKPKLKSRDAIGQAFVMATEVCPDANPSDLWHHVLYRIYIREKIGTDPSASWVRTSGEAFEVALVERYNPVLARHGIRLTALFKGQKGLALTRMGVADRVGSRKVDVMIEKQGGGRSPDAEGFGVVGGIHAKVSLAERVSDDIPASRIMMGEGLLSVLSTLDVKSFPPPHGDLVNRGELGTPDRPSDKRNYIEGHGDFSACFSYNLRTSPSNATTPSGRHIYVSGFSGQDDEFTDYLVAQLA

T4: AgeI wt (UniProt Q9KHV6 1-278)
T4 sequence: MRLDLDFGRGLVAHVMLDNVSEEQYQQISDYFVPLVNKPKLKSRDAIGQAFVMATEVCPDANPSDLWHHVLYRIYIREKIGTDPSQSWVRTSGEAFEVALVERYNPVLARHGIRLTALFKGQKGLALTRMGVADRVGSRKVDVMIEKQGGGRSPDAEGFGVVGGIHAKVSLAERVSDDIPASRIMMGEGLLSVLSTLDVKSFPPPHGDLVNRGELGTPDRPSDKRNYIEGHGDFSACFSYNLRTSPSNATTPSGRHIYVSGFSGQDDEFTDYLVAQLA

T5: AgeI D177A (UniProt Q9KHV6 1-278, D177A)
T5 sequence: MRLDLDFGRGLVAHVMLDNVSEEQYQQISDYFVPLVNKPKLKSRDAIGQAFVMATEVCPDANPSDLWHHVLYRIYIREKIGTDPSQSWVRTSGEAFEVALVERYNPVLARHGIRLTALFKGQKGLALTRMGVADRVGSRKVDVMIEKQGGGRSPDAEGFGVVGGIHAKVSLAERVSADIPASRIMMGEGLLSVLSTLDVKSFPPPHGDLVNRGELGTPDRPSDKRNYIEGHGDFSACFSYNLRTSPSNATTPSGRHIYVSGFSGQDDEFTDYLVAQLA

T6: AgeI D142A (UniProt Q9KHV6 1-278, D142A)
T6 sequence: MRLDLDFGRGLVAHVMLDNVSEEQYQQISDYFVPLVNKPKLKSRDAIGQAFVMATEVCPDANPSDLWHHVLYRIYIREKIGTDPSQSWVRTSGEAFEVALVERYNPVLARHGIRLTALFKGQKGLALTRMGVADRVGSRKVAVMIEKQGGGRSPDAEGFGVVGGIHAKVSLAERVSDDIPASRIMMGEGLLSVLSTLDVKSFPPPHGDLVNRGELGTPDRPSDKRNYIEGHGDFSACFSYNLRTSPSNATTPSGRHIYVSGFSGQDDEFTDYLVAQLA

T7: AgeI S138A (UniProt Q9KHV6 1-278, S138A)
T7 sequence: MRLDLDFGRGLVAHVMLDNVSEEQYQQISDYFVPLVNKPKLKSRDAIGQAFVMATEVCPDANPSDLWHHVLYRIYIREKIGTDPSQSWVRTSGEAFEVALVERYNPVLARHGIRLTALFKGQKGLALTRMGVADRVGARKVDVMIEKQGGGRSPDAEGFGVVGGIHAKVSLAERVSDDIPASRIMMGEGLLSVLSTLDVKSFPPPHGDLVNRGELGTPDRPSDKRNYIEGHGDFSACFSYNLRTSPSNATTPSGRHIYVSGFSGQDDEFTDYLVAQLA

B1: SP (specific) (dsDNA)
DNA 1: AGACCCACGCTCACCGGTTCCAGATTTATC
DNA 2: GATAAATCTGGAACCGGTGAGCGTGGGTCT
B2: NC (non-canonical) (dsDNA)
DNA 1: AGACCCACGCTCACCGGATCCAGATTTATC
DNA 2: GATAAATCTGGATCCGGTGAGCGTGGGTCT
B3: SP13 (dsDNA)
DNA 1: TTCGACCGGTCGA
DNA 2: TTCGACCGGTCGA
B4: SP11 (dsDNA)
DNA 1: TCGACCGGTCG
DNA 2: TCGACCGGTCG

What was measured:
AgeI D223A = biological target: T1, AgeI D223A; test: EMSA
AgeI D178A = biological target: T2, AgeI D178A; test: EMSA
AgeI Q86A = biological target: T3, AgeI Q86A; test: EMSA
AgeI wt [1] = biological target: T4, AgeI wt; test: EMSA
AgeI D177A = biological target: T5, AgeI D177A; test: EMSA
AgeI D142A = biological target: T6, AgeI D142A; test: EMSA
AgeI S138A = biological target: T7, AgeI S138A; test: EMSA
AgeI wt [2] = biological target: T4, AgeI wt; test: X-ray crystallography
AgeI wt [3] = biological target: T4, AgeI wt; test: X-ray crystallography; remark: listed apart in the source

Row | Binder | Kd (AgeI D223A) | Kd (AgeI D178A) | Kd (AgeI D177A) | other results
1 | B1 | 1.2 ± 0.4 nM | 1 ± 0.3 nM | 19.5 ± 5.6 nM | Kd (AgeI Q86A): 4.6 ± 1.4 nM; Kd (AgeI wt [1]): 0.9 ± 0.2 nM; Kd (AgeI D142A): 2.4 ± 0.8 nM; Kd (AgeI S138A): 1.2 ± 0.2 nM
2 | B2 | ~5 nM | ~5 nM | 14.7 ± 3.1 nM | –
3 | B3 | – | – | – | binding result (AgeI wt [2]): binds
4 | B4 | – | – | – | binding result (AgeI wt [3]): binds
